The RNAGym collection of RNA variant scans (doi:10.1073/pnas.2313332121)

B1: TPR t1 (parent)
chain: GACCAAUCUGCCCUCAGAGCUCGAGAACAUCUUCGGAUGCAGAGGAGGCAGGCUUCGGUGGCGCGAUAGCGCCAACGUCCUCAACCUCCAAUGCAUCCCACCACAUGAUGAUGCCUGAAGAGCCUUGGUUUUUUG

Variants of: B1
Assay: polymerase ribozyme fitness, log enrichment relative to wild type (log ratio); higher = more active; in vitro selection for triplet polymerase activity
In short: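 Fitness is a logarithmic measure of how a genotype enriched relative to the wild type, with replicate averages weighted by inverse variance. The logarithm uses base 2, and enrichment came from Illumina sequencing of input and output libraries. Those libraries were PCR-built, transcribed mutants of each subunit of a heterodimeric triplet polymerase ribozyme, passed through one triplicate in vitro selection round that included frozen incubation at −7 °C, gel excision of extended constructs and streptavidin-bead capture. Genotypes were kept only if they had ≥10 input reads and ≥1 read per output.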

Variant	polymerase ribozyme fitness (log ratio)
GACCAAUCUGCCCUCAGAGCUCGAGAACAUCUUCGGAUGCAGAGCAGGCAGGCUUCGGUGGCGCGAUAGCUCCAACGUCCUCAACCUCCAGUGCAUCCCAUCACAUGAUAAUGCCUGAAGAGCCUUGGUUUUUUG [G45C G71U A91G C101U G110A]	-5.08
GACCAAUCUGCCCUCAGAGCUCGAGAACAUCUUCGGAUGCAGAGCAGGCAGGCUUCGGUGACGCGAUAGCGCCAACGUCCUCAACCUCCAAUGCAUCCCACCACAUGAUGAUGCCUGAAGAGCCUUGGAUUUUUG [G45C G61A U129A]	-0.659
GACCAAUCUGCCCUCAGAGCUCGAGAACAUCUUCGGAUGCAGAGCAGGCAGGCUUCGGUGGCGCGAUAGCGCCAACGUCCUCAACCUCCAAUGCAUCCCACCAAAUGAUGAUGCCUGAAAAGCCUUGGUUUUUUG [G45C C104A G120A]	-1.45
GACCAAUCUGCCCUCAGAGCUCGAGAACAUCUUCGGAUGCAGAGCAGUCAGGCUUCGGUAACGCGAUAGCGCCAACGUCCUCCACCUCCAAUGCAUCCCACCACAUGAUGAUGCCUGAAGAGCCUUGGUUUUUUG [G45C G48U G60A G61A A83C]	-3.56
GACCAAUCUGCCCUCAGAGCUCGAGAACAUCUUCGGAUGCAGAGCAGGCAGGCUUCGGUGGCGCGAUAGCGCCAACGUCCUCAACCUCCAAUGCAUCCCACCACAUGAUGAUCCCUGAAGAGCCUUGGUUUUUUU [G45C G113C G135U]	-4.16
GACCAAUCUGCCCUCAGAGCUCGAGAACAUCUUCGGAUGCAGAGUAGGCUGGCUUCGGUGGCGCGAUAGCGCCAACGUCCUCAACCUCCAAUGCAUCCCACCACAUGAUGAUGCCUGAAGAGCCUUGGUUUUUUG [G45U A50U]	-2.62
GACCAAUCUGCCCUCAGAGCUCGAGAACAUCUUCGGAUGCAGAGUCGGCAGGCUUCGGUGGCGCGAUAGCGCCAACGUCCUCAACCUCCAAUGCAUCCCACCACAUGAUGAUGCCUGAAGAGCCUUGGUUUUUUG [G45U A46C]	-2.05
GACCAAUCUGCCCUCAGAGCUCGAGAACAUCUUCGGAUGCAGAGUUGGCAGGCUUCGGUGGCGCGAUAGCGCCAACGUCCUCAACCUCCAAUGCAUCCCACCACAUGAUGAUGCCUGAAGAGCCUUGGUUUUUUG [G45U A46U]	-2.3
GACCAAUCUGCCCUCAGAGCUCGAGAACAUCUUCGGAUGCAGAGCAGGCAGGCUUCGGUGGCGCGAUAGCGCCAACGUCCUCAACCUCCAAUGCAUCCCACCACAUGAUCAUGCCUGAAGAGCCUUGGUUUUUUG [G45C G110C]	-5.03
GACCAAUCUGCCCUCAGAGCUCGAGAACAUCUUCGGAUGCAGAGCAGGCAGGCUUCGGUGGCGCGAUAGCGCCAACGUCCUCAACCUCCAAUGCAUCCCACCACAUGAUGAUGCUUGAAGGGCCUUGAUUUUUUG [G45C C115U A121G G128A]	-4.67
GACCAAUCUGCCCUCAGAGCUCGAGAACAUCUUCGGAUGCAGAGCAGGCAAGCUUCGGUGGCGCGAUAGCGCCAACGUCCUCAACCUCCAAUGCAUCCCACCACAUGAUGAUGCCUGAAGAGCCUUGGUUUUUUG [G45C G51A]	-3.29
GACCAAUCUGCCCUCAGAGCUCGAGAACAUCUUCGGAUGCAGAGCAGGCAGGCUUCGGUGGCGCGAUAGCGCCAACUUCCUCAACCUCCAAUGCAUCCCACCACAUGAUGAUGCCUGAAGAGCCUUGGUUUUUUG [G45C G77U]	-1.32
GACCAAUCUGCCCUCAGAGCUCGAGAACAUCUUCGGAUGCAGAGUAGGCCGGCUUAGGUGGCGCGAUAGCGCCAACGUCCUCAACCUCCAAUGCAUCCCACCACAUGAUGAUGCCUGAAGAGCCUUGGUUUUUUG [G45U A50C C56A]	-1.55
GACCAAUCUGCCCUCAGAGCUCGAGAACAUCUUCGGAUGCAGAGUCGGCAGGCCUCGGUGGCGCGAUAGCGCCAACGUCCUCAACCUCCGAUGCAUCCCACCACAUGAUGAUGCCUGAAGAGCCUUGGUUUUUUG [G45U A46C U54C A90G]	-1.94
GACCAAUCUGCCCUCAGAGCUCGAGAACAUCUUCGGAUGCAGAGCAGGCAGGCUUCGGUGGCGCGAUAGCGCCAACGUCUUCAACCACCAAUGCAUCCCACCACAUGAUGAUGCCUGAAGAGCCUUGGUUUUUUG [G45C C80U U87A]	-2.93
GACCAAUCUGCCCUCAGAGCUCGAGAACAUCUUCGGAUGCAGAGCAGGCAGGCUUCGGUGGCGCGAUAGCGCCAACGUCCUCAACCUCCAAUGCAUCCCACCACAUGAUGAUGCCUGAAGAGCCUUGGUUUAUUG [G45C U132A]	-1.99
GACCAAUCUGCCCUCAGAGCUCGAGAACAUCUUCGGAUGCAGAGUAGGCGGGCUUCGGUGGCGCGAUAGCGCUAACGUCCUCAACCUCCAAUGCAUCCCACCACAUGAUGAUGCCUGAAGAGCCUUGGUUUUAUG [G45U A50G C73U U133A]	-1.75
GACCAAUCUGCCCUCAGAGCUCGAGAACAUCUUCGGAUGCAGAGCAGGCAGGCUUCGGUGGCGCGAUAGCGCCAACGUCCUCAACCUUCAAUGCAUCCCACCACAUGAUGAUGCCUGAAGAGCCUUGGUUUUUUG [G45C C88U]	-0.355
GACCAAUCUGCCCUCAGAGCUCGAGAACAUCUUCGGAUGCAGAGUCGGCAGGCCUCGGUGGCGCGAUAGCGCCAACGCCCUCAACCUCCAAUGCAUCCCACCACAUGAUGAUGCCUGAAGAGCCUUGGUUUUUUG [G45U A46C U54C U78C]	-2
GACCAAUCUGCCCUCAGAGCUCGAGAACAUCUUCGGAUGCAGAGCAGGCAGGCUUCGGUGGCGCGAUAGCGCCAACGUCCUCAACCUCCAAUGCAUCCCACCACAUGAUGAUGCCUGAAGAGCCUUGGCUUUUUG [G45C U129C]	-2.28
GACCAAUCUGCCCUCAGAGCUCGAGAACAUCUUCGGAUGCAGAGCAGGCAGGCUUCGGUGGCGCGAUAGCGCCAACGUCCUCAACCUCCAAUGCAUCCCACCACAUGAUGAUCCCUGAAGAGCCUUGGUUUUUUG [G45C G113C]	-2.91

Variant	polymerase ribozyme fitness (log ratio)
GACCAAUCUGCCCUCAGAGCUCGAGAACAUCUUCGGAUGCAGAGCAGGCAGGCUUCGGUGGCGCGAUAGCGCCAACGUCCUCAACCUCCAAUGCAUCCCAACACACGAUGAUGCCUGAAGAGCCUUGGUUUUUUG [G45C C101A U106C]	-2.07
GACCAAUCUGCCCUCAGAGCUCGAGAACAUCUUCGGAUGCAGAGCAGGCAGGCUACGGUGGCGCGAUAGCGCCAACGUCCUCAACCUCCAAUGCUUCCCACCACAUGAUGAUGUCUGAAGAGCCUUGGUUUUUUG [G45C U55A A95U C114U]	-3.85
GACCAAUCUGCCCUCAGAGCUCGAGAACAUCUUCGGAUGCAGAGCAGGCAGGCUUCGGUGGCCCGAUAGCGCCAACGUCCUCAACCUCCAAUGCAUCCCACCACAUGAUGAUGCCUGAAGAGCCUUGGUUUUUUG [G45C G63C]	-2.1
GACCAAUCUGCCCUCAGAGCUCGAGAACAUCUUCGGAUGCAGAGCAGGCAGGCUUCGGUGGCGCGAUAGCGCCAACGUCCUCAACCUCCAAUGCAUCCCACAACAUGAUGAUGCCUGAAGAGCCUUGGUUUUUUG [G45C C102A]	-3.26
GACCAAUCUGCCCUCAGAGCUCGAGAACAUCUUCGGAUGCAGAGCAGGCAGGCUUCGGUGGCGCGAUAGCGCCAACGUCCUCAACCCCCAAUGCAUCCCACCACAUGUUGAUGCCUGAAGAGCCUUGGUUUUUUG [G45C U87C A108U]	-6.32
GACCAAUCUGCCCUCAGAGCUCGAGAACAUCUUCGGAUGCAGAGUAGGCUGGCUUCGCUGGCGCGAUAGCGCCAACGUCCUCAACCUCCAAUGCAUCCCACCACAUGAUGAUGGCUGAAGAGCCUUGGUUUUUUG [G45U A50U G58C C114G]	-5.4
GACCAAUCUGCCCUCAGAGCUCGAGAACAUCUUCGGAUGCAGAGCAGGCAGGCUUCGGUGGCGCGAUAGCGCCAACGUCCUCAACCUCCAAUGCAUCCCACCACAUGAUGACGCCUGAAGAGCCUUGGUUUUUUG [G45C U112C]	1.16
GACCAAUCUGCCCUCAGAGCUCGAGAACAUCUUCGGAUGCAGAGCAGCCAGGCUUCGGUGGCGCGAUAACGCCAACGUCCUCAACCUCCAAUGCAUCCCACCACAUGAUGAUGCCUGAAGAGCCUUGGUUUUUUG [G45C G48C G69A]	-4.32
GACCAAUCUGCCCUCAGAGCUCGAGAACAUCUUCGGAUGCAGAGCAGGCAGGCUUCGGUGGCGCGAUAGCGCCAACGUCCUCAACCUCCAAUGCAUACCACCACAUGAUGAUGCCUGAAGAGCCUUGGUUUUUUG [G45C C97A]	-4.5
GACCAAUCUGCCCUCAGAGCUCGAGAACAUCUUCGGAUGCAGAGCAGGCAGGCUUCGGUGGCGCGAUAGCGCCAACGCCCUCAACCUCCAAUGCAUCCCACCACAUGAUGAUGCCUGAAGAGCAUUGGUUUUUUG [G45C U78C C124A]	0.349
GACCAAUCUGCCCUCAGAGCUCGAGAACAUCUUCGGAUGCAGAGCAGGCAGGCUUCGGUGGCGCGAUAGCGCCAACGUCCUCAACCUCCAAUGCAUCCCAGCACAUGAUGAUGCCUGAAGAACCUUGGUUUUUUG [G45C C101G G122A]	-3.08
GACCAAUCUGCCCUCAGAGCUCGAGAACAUCUUCGGAUGCAGAGCAGGCAGGCUUCGGUGGCGCGAUAGCGCCAACGUCCUCAACCUCCAAUGCAACCCACCACAUGAUGAUGCCUGAAGAGCCUUGGUUUUUUG [G45C U96A]	-1.79
GACCAAUCUGCCCUCAGAGCUCGAGAACAUCUUCGGAUGCAGAGCAGGCAGGCUUCGGUGACGCGAUAGCGCCAACGUCCUCAACCUCCAAUGCAUCCCACCACAUGAUGAUGCCUGAAGAGCCUUGGUUUUUUG [G45C G61A]	0.0573
GACCAAUCUGCCCUCAGAGCUCGAGAACAUCUUCGGAUGCAGAGCAGGCAGGCUUCGGUGGCGCGAUAACGCCAACGUCCUCAACCUCCAAUGCAUCCCACCACAUGAUGAUGCCUGAAGAGCCUUGGUUUUUUG [G45C G69A]	-3.75
GACCAAUCUGCCCUCAGAGCUCGAGAACAUCUUCGGAUGCAGAGUAGGCAGGCUUCGGUGGCGCGAUAGCGCCAACGUCCUCAACCUCCAAUGCAUCCCACCACAUGAUGAUGCCUGAAGAGCCUUGGUUUUUUG [G45U]	-1.31
GACCAAUCUGCCCUCAGAGCUCGAGAACAUCUUCGGAUGCAGAGUAGGCUGGAUUCGGUGGCGCGAUAGCGCCAACGUCCUCAACCUCCAAUGCAUCCCACCACAUGAUGAUGUCUGAAGAGCCUUGGUUUUUUG [G45U A50U C53A C114U]	-3.7
GACCAAUCUGCCCUCAGAGCUCGAGAACAUCUUCGGAUGCAGAGCAGGCAGGCUUCGGUGGCACGAUAGCGCCAACGUCCUCAACCUCCAAUGCAUCCCACCACAAGAUGAUGCCUGAAGAGCCUUGGUUUUUUG [G45C G63A U106A]	-1.21
GACCAAUCUGCCCUCAGAGCUCGAGAACAUCUUCGGAUGCAGAGCAGGCAGGCUUCGGUCGCGCGAUAGCGCCAACGUCCUCAGCCUCCAAUGCAUCCCACCACAUGAUGAUGCCUGAAGAGCCUUGGUUUUUUG [G45C G60C A84G]	-2.3
GACCAAUCUGCCCUCAGAGCUCGAGAACAUCUUCGGAUGCAGAGCAAGCAGGCUUCGGUGGCGCGAUAGCGCCAACGUGCUCAACCUCCAAUGCAUCCCACCACAUGAUGAUGCCUGAAGAGCCUUGGUUUUUUG [G45C G47A C79G]	-5.96
GACCAAUCUGCCCUCAGAGCUCGAGAACAUCUUCGGAUGCAGAGCAGGCAGGCUUCGGUGGCGCGAUAGCGCCAACGUCCUCAACCUCCAAUGCAUCCCACCACAAGAUGAUGCCUGAAGAGCCUUGGUUUUUUG [G45C U106A]	-1.34
GACCAAUCUGCCCUCAGAGCUCGAGAACAUCUUCGGAUGCAGAGCAGGCAGGCUUCGGUGGCGCGAUAGCGCCAACAUCCUGAACCUCGAAUGCAUCCCACCACAUGAUGAUGCCUGAAGAGCCUUGGUUUUUUG [G45C G77A C82G C89G]	-3.97
